Patent US20210292396A1

Experiments:
Experiment in all cases: cell-based or functional assay
[1] = target: Env of HIV isolate TH976.17 (clade AE) (HIV)
[2] = target: Env of HIV isolate ZM106.9 (clade C) (HIV)
[3] = target: HIV Env of isolate CH117.4 (HIV)
[4] = target: Env of HIV isolate BB201.B42 (clade A) (HIV)
[5] = target: Env of HIV isolate 3337.v2.c6 (clade CD) (HIV)
[6] = target: Env of HIV isolate CAP244.D3 (clade C) (HIV)
[7] = target: Env of HIV isolate HXB2.DG (clade B) (HIV)
[8] = target: HIV Env of isolate ZM176.66 (HIV)
[9] = target: Env of HIV isolate 288.38 (clade C) (HIV)
[10] = target: HIV Env of isolate CAP45.G3 (HIV)
[11] = target: HIV Env of isolate 6838.v1.c35 (HIV)
[12] = target: Env of HIV isolate A03349M1.vrc4a (clade D) (HIV)
[13] = target: Env of HIV isolate CNE57 (clade B) (HIV)
[14] = target: HIV Env of isolate ZM109.4 (HIV)
[15] = target: HIV Env of isolate 3873.v1.c24 (HIV)
[16] = target: Env of HIV isolate 001428-2.42 (clade C) (HIV)
[17] = target: Env of HIV isolate MW965.26 (clade C) (HIV)
[18] = target: Env of HIV isolate X2278.C2.B6 (clade B) (HIV)
Env of SIVmac251.30.SG3 = target: Env of SIVmac251.30.SG3
[19] = target: HIV Env of isolate CNE30 (HIV)
[20] = target: HIV Env of isolate CNE40 (HIV)
[21] = target: HIV Env of isolate CH070.1 (HIV)
[22] = target: Env of HIV isolate 247-23 (clade D) (HIV)
[23] = target: Env of HIV isolate CNE5 (clade AE) (HIV)
[24] = target: HIV Env of isolate 6322.v4.c1 (HIV)
[25] = target: Env of HIV isolate X1254.c3 (clade G) (HIV)
[26] = target: HIV Env of isolate A03349M1.vrc4a (HIV)
[27] = target: Env of HIV isolate 6322.v4.c1 (clade C) (HIV)
[28] = target: Env of HIV isolate R2184.c4 (clade AE) (HIV)
[29] = target: Env of HIV isolate X2131.C1.B5 (clade G) (HIV)
[30] = target: Env of HIV isolate SF162.LS (clade B) (HIV)
[31] = target: HIV Env of isolate NKU3006.ec1 (HIV)
[32] = target: Env of HIV isolate 45_01dG5 (clade B) (HIV)
[33] = target: Env of HIV isolate 6101.10 (clade B) (HIV)
[34] = target: Env of HIV isolate CNE58 (clade C in Table 7) (HIV)
[35] = target: Env of HIV isolate X1632.S2.B10 (clade G) (HIV)
[36] = target: HIV Env of isolate 286.36 (HIV)
[37] = target: Env of HIV isolate CNE21 (clade BC) (HIV)
[38] = target: HIV Env of isolate ZM233.6 (HIV)
[39] = target: Env of HIV isolate CNE15 (clade BC) (HIV)
[40] = target: Env of HIV isolate ZM197.7 (clade C) (HIV)
[41] = target: Env of HIV isolate TZA125.17 (clade C) (HIV)
[42] = target: Env of HIV isolate 16845-2.22 (clade C) (HIV)
[43] = target: Env of HIV isolate 6631.v3.c10 (clade C) (HIV)
[44] = target: Env of HIV isolate CNE59 (clade AE) (HIV)
[45] = target: HIV Env of isolate 25925-2.22 (HIV)
[46] = target: Env of HIV isolate ZM55.28a (clade C) (HIV)
[47] = target: Env of HIV isolate REJO.67 (clade B) (HIV)
[48] = target: Env of HIV isolate R3265.c6 (clade AE) (HIV)
[49] = target: Env of HIV isolate KER2018.11 (clade A) (HIV)

B1: ePGT121.18.17 (ePGT121.18.H17 VH and ePGT121.17.L1 VL) (antibody, V domains shown)
VH: QMQLQESGPGLVKPGETLSLTCSVSGASISSSYWSWLRETPGKGLEWIGYTHHSGDTNYAPSLKSRVTIGLDPSKNQVSLSLTSVTAADTAVYYCARTLHGRRIYGVVAFNEYYTYFYWPTWGKGTQVTVSS
VL: SDISVAPGETVRITCGGESIGSRAVQWYQHRPGQAPRLIIYNNQDRPPGIPERFSGSPDIDFGTTATLTISNVEAGDEATYYCHIWDSRRPTNWELGPGTTLTVL
B1 gave an IC50, pseudovirus neutralization [1] of over 50 µg/mL, an IC50, pseudovirus neutralization [2] of 0.004 µg/mL and an IC80, pseudovirus neutralization [3] of over 50 µg/mL. It also gave an IC50, pseudovirus neutralization [4] of 0.003 µg/mL, an IC50, pseudovirus neutralization [5] of 0.363 µg/mL and an IC50, pseudovirus neutralization [6] of over 50 µg/mL. For the same binder, the IC50, pseudovirus neutralization [7] was 0.016 µg/mL, the IC80, pseudovirus neutralization [8] was 0.454 µg/mL and the IC50, pseudovirus neutralization [9] was 0.002 µg/mL. For the same binder, the IC80, pseudovirus neutralization [10] was over 50 µg/mL, the IC80, pseudovirus neutralization [11] was 4.34 µg/mL and the IC50, pseudovirus neutralization [12] was 0.009 µg/mL. The IC50, pseudovirus neutralization [13] was 0.006 µg/mL, the IC80, pseudovirus neutralization [14] was over 50 µg/mL and the IC80, pseudovirus neutralization [15] was 0.02 µg/mL. It also gave an IC50, pseudovirus neutralization [16] of 0.004 µg/mL, an IC50, pseudovirus neutralization [17] of 0.004 µg/mL and an IC50, pseudovirus neutralization [18] of 0.003 µg/mL. It also gave an IC80, pseudovirus neutralization (Env of SIVmac251.30.SG3) of over 50 µg/mL, an IC80, pseudovirus neutralization [19] of 0.047 µg/mL and an IC80, pseudovirus neutralization [20] of 0.13 µg/mL. The IC80, pseudovirus neutralization [21] was 0.007 µg/mL, the IC50, pseudovirus neutralization [22] was over 50 µg/mL and the IC50, pseudovirus neutralization [23] was 47 µg/mL. The IC80, pseudovirus neutralization [24] was over 50 µg/mL, the IC50, pseudovirus neutralization [25] was 0.006 µg/mL and the IC80, pseudovirus neutralization [26] was 0.02 µg/mL. The IC50, pseudovirus neutralization [27] was over 50 µg/mL, the IC50, pseudovirus neutralization [28] was over 50 µg/mL and the IC50, pseudovirus neutralization [29] was 0.002 µg/mL. It also gave an IC50, pseudovirus neutralization [30] of 0.003 µg/mL, an IC80, pseudovirus neutralization [31] of over 50 µg/mL and an IC50, pseudovirus neutralization [32] of 0.003 µg/mL. It also gave an IC50, pseudovirus neutralization [33] of 0.004 µg/mL, an IC50, pseudovirus neutralization [34] of 0.053 µg/mL and an IC50, pseudovirus neutralization [35] of over 50 µg/mL. For the same binder, the IC80, pseudovirus neutralization [36] was 0.006 µg/mL, the IC50, pseudovirus neutralization [37] was 0.002 µg/mL and the IC80, pseudovirus neutralization [38] was 0.065 µg/mL. The IC50, pseudovirus neutralization [39] was 14 µg/mL, the IC50, pseudovirus neutralization [40] was over 50 µg/mL and the IC50, pseudovirus neutralization [41] was 0.18 µg/mL. It also gave an IC50, pseudovirus neutralization [42] of 0.232 µg/mL, an IC50, pseudovirus neutralization [43] of 0.063 µg/mL and an IC50, pseudovirus neutralization [44] of over 50 µg/mL. The IC80, pseudovirus neutralization [45] was 0.021 µg/mL, the IC50, pseudovirus neutralization [46] was 0.012 µg/mL and the IC50, pseudovirus neutralization [47] was 1.43 µg/mL. The IC50, pseudovirus neutralization [48] was over 50 µg/mL and the IC50, pseudovirus neutralization [49] was over 50 µg/mL.
